We go through eight molecules from patent US20260242419A1, “A CYCLIC PEPTIDE FOR TRAPPING INTERLEUKIN-1 BETA” (Merck Sharp & Dohme LLC, priority 2023, published 2026).

B1: SEQ ID NO 289 (peptide)
peptide: cyclo([Bip][4Pal][Phe(4-COOH)]G[Pro(cis-4-F)][Trp(4-Cl)(βS-Me)][Aib]SW[d(αMeD)][aThr]Q[Dab]G[dPro(4R-(4-pyridylmethyl))])
modifications: ring closure inferred
B2: SEQ ID NO 291 (peptide)
peptide: cyclo([Bip][4Pal][Phe(4-COOH)]G[Pro(cis-4-F)][1Nal(3S-Me)][Aib]SW[d(αMeD)][Ala(pyrimidin-5-yl)]Q[Dab]G[dPro(4R-(4-pyridylmethyl))])
modifications: ring closure inferred
B3: SEQ ID NO 290 (peptide)
peptide: cyclo([Bip][4Pal][Phe(4-COOH)]G[Pro(cis-4-F)][1Nal(3S-Me)][Aib]SW[d(αMeD)][Ala(4-THP)]Q[Dab]G[dPro(4R-(4-pyridylmethyl))])
modifications: ring closure inferred
B4: SEQ ID NO 295 (peptide)
peptide: cyclo([Bip4CONMe2″][4Pal][Phe(4-COOH)]G[Pro(cis-4-F)][Trp(βS-Me,4-F)][Aib]SW[d(αMeD)][Ala(4-THP)]Q[Dab]G[dPro(4R-(4-pyridylmethyl))])
modifications: ring closure inferred; not fully specified (N-terminus); printed as cyclic, Bip4CONMe2-4Pal-Phe4COOH-G-Proc4F-SbMeW4F-Aib-S-W-daMeD-AlaTHP4-Q-Dab-G-dProc4CH24Pal
B5: SEQ ID NO 293 (peptide)
peptide: cyclo([Bip][4Pal][Phe(4-COOH)]G[Pro(cis-4-F)][Trp(βS-Me,4-F)][Aib]SW[d(αMeD)][aThr]Q[Dab]G[dPro(4R-(4-pyridylmethyl))])
modifications: ring closure inferred; not fully specified (N-terminus); printed as cyclic, Bip-4Pal-Phe4COOH-G-Proc4F-SbMeW4F-Aib-S-W-daMeD-alT-Q-Dab-G-dProc4CH24Pal
B6: SEQ ID NO 294 (peptide)
peptide: cyclo([Bip][4Pal][Phe(4-COOH)]G[Pro(cis-4-F)][Trp(βS-Me,4-F)][Aib]SW[d(αMeD)][Ala(4-THP)]Q[Dab]G[dPro(4R-(4-pyridylmethyl))])
modifications: ring closure inferred; not fully specified (N-terminus); printed as cyclic, Bip-4Pal-Phe4COOH-G-Proc4F-SbMeW4F-Aib-S-W-daMeD-AlaTHP4-Q-Dab-G-dProc4CH24Pal
B7: SEQ ID NO 292 (peptide)
peptide: cyclo([Bip][4Pal][Phe(4-COOH)]G[Pro(cis-4-F)][Trp(4-Cl)(βS-Me)][Aib]SW[d(αMeD)][Ala(pyrimidin-5-yl)]Q[Dab]G[dPro(4R-(4-pyridylmethyl))])
modifications: ring closure inferred; not fully specified (N-terminus); printed as cyclic, Bip-4Pal-Phe4COOH-G-Proc4F-SbMeW4Cl-Aib-S-W-daMeD-PyrimAla-Q-Dab-G-dProc4CH24Pal
B8: SEQ ID NO 296 (peptide)
peptide: cyclo([Bip(4'-CONH2)][4Pal][Phe(4-COOH)]G[Pro(cis-4-F)][Trp(βS-Me,4-F)][Aib]SW[d(αMeD)][Ala(4-THP)]Q[Dab]G[dPro(4R-(4-pyridylmethyl))])
modifications: ring closure inferred; not fully specified (N-terminus); printed as cyclic, Bip4CONH2-4Pal-Phe4COOH-G-Proc4F-SbMeW4F-Aib-S-W-daMeD-AlaTHP4-Q-Dab-G-dProc4CH24Pal

Starred links: 1 amine or outer side, 2 acyl side, 3 side chain; linkers in the order of their positions; H or OH if unused. Non-standard residues stand in square brackets, D forms with d. Primed or numbered codes have the meaning given here. Bip4CONMe2″ = 4'-(dimethylcarbamoyl)biphenylalanine, CN(C)C(=O)c1ccc(-c2ccc(C[C@H](N[*:1])C(=O)[*:2])cc2)cc1; Trp(4-Cl)(βS-Me) = C[C@@H](c1c[nH]c2cccc(Cl)c12)[C@H](N)C(=O)O; dPro(4R-(4-pyridylmethyl)) = O=C(O)[C@H]1C[C@@H](Cc2ccncc2)CN1; Trp(βS-Me,4-F) = C[C@@H](c1c[nH]c2cccc(F)c12)[C@H](N)C(=O)O; Bip(4'-CONH2) = NC(=O)c1ccc(-c2ccc(C[C@H](N)C(=O)O)cc2)cc1; 1Nal(3S-Me) = C[C@@H](c1cccc2ccccc12)[C@H](N)C(=O)O; Ala(pyrimidin-5-yl) = N[C@@H](Cc1cncnc1)C(=O)O; Phe(4-COOH) = N[C@@H](Cc1ccc(C(=O)O)cc1)C(=O)O; Bip = N[C@@H](Cc1ccc(-c2ccccc2)cc1)C(=O)O; Pro(cis-4-F) = O=C(O)[C@@H]1C[C@H](F)CN1; Ala(4-THP) = N[C@@H](CC1CCOCC1)C(=O)O; d(αMeD) = C[C@@](N)(CC(=O)O)C(=O)O; 4Pal = N[C@@H](Cc1ccncc1)C(=O)O; aThr = C[C@H](O)[C@H](N)C(=O)O; Dab = NCC[C@H](N)C(=O)O; Aib = CC(C)(N)C(=O)O

The test deals with Recombinant human IL-1β (BioLegend 579404) (human, UniProt P01584 117-269). Nature of the test: cell-based or functional assay.
Consider B1, for which the “MRC5 IC50” value stood at 0.015 nM.
For B2 the value was 0.018 nM.
For B3 the value was 0.018 nM; for B4, 0.012 nM; for B5, 0.01 nM.
The value for B6 was 0.014 nM.
B7: the “MRC5 IC50” value stood at 0.015 nM.
For B8 the value was 0.013 nM.
